Results from the supplement of paper PMC7877785.
± gives the uncertainty stated by the source.

Assay: self-splicing fitness, log relative to wild type (ln ratio); higher = more splicing; Tetrahymena group I intron in knt gene, E. coli kanamycin selection, DiMSum; sequences stand for … in CUCUCU…GGAGGGAAAAGUUAUCAGGCAUGCACCUGGUAGCUAGUCUUUAAACCAAUAGAUUGCAUCGGUUUAAAAGGCAAGACCGUCAAAUUGCGGGAAAGGGGUCAACAGCCGUUCAGUACCAAGUCUCAGGGGAAACUUUGAGAUGGCCUUGCAAAGGGUAUGGUAAUAAGCUGACGGACAUGGUCCUAACCACGCAGCCAAGUCCUAAGUCAACAGAUCUUCUGUUGAUAUGGAUGCAGUUCACAGACUAAAUGUCGGUCGGGGAAGAUGUAUUCUUCUCAUAAGAUAUAGUCGGACCUCUCCUUAAUGGGAGCUAGCGGAUGAAGUGAUGCAACACUGGAGCCGCUGGGAACUAAUUUGUAUGCGAAAGUAUAUUGAUUAGUUUUGGAGUACUCGUGGUCG
Method in brief: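 Colonies from six replicate transformations of E. coli BL21(DE3) were pooled and amplicon-sequenced on an Illumina HiSeq 2500. The library placed an intron with all eight P1ex-region nucleotides randomised inside the knt kanamycin-resistance gene on pET-22b(+), and cells grew overnight at 37°C or 30°C on LB agar with or without 25 μg/mL kanamycin (plus 100 μg/mL carbenicillin, 50 μM IPTG, 0.2% rhamnose). Fitness is the DiMSum error-weighted combination of wild-type-normalised replicate fold changes, kanamycin versus none.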

| Sequence | self-splicing fitness (ln) (30 °C) | self-splicing fitness (ln) (37 °C) |
| --- | --- | --- |
| CCGCAGCAAUAUUACGCAAC | -3.22 ± 0.19 | -3.07 ± 0.32 |
| CCGCAGCAAUAUUACGCAAU | -3.95 ± 0.18 | -3.67 ± 0.27 |
| CCGCAGCAAUAUUACGCACG | -0.993 ± 0.097 | -0.578 ± 0.11 |
| CCGCAGCAAUAUUACGCCUG | -1.69 ± 0.13 | -1.22 ± 0.16 |
| CCGCAGCAAUAUUACGCGAA | -2.87 ± 0.18 | -2.5 ± 0.18 |
| CCGCAGCAAUAUUACGCGAC | -2.84 ± 0.17 | -2.09 ± 0.26 |
| CCGCAGCAAUAUUACGCUUA | -3.07 ± 0.17 | -2.9 ± 0.25 |
| CCGCAGCAAUAUUACGGAUG | -1.99 ± 0.12 | -1.54 ± 0.13 |
| CCGCAGCAAUAUUACGGCAG | -1.4 ± 0.081 | 0.0999 ± 0.098 |
| CCGCAGCAAUAUUACGGCCG | -0.461 ± 0.12 | 0.198 ± 0.15 |
| CCGCAGCAAUAUUACGGCGU | -2.44 ± 0.081 | -1.27 ± 0.096 |
| CCGCAGCAAUAUUACGUCAC | -4.14 ± 0.19 | -2.84 ± 0.22 |
| CCGCAGCAAUAUUACGUCAU | -3.18 ± 0.15 | -2.25 ± 0.2 |
| CCGCAGCAAUAUUACGUCUC | -3.13 ± 0.24 | -2.56 ± 0.26 |
| CCGCAGCAAUAUUACGUGAG | -0.587 ± 0.038 | -0.367 ± 0.051 |
| CCGCAGCAAUAUUACGUUAU | -3.43 ± 0.17 | -2.77 ± 0.19 |
| CCGCAGCAAUAUUACGUUGG | -3.26 ± 0.22 | -1.52 ± 0.2 |
| CCGGAGCAAUAUUACGAACG | -0.608 ± 0.16 | 0.0318 ± 0.19 |
| CCGGAGCAAUAUUACGAUAC | – | -1.97 ± 0.36 |
| CCGGAGCAAUAUUACGAUAU | – | -2.37 ± 0.42 |
| CCGGAGCAAUAUUACGAUCA | -3.1 ± 0.42 | -2.63 ± 0.44 |
| CCGGAGCAAUAUUACGCAGG | -3.9 ± 0.27 | -2.67 ± 0.23 |
| CCGGAGCAAUAUUACGCAUG | -1.66 ± 0.14 | 0.0371 ± 0.22 |
| CCGGAGCAAUAUUACGGAGU | -3.65 ± 0.2 | -3.41 ± 0.24 |
| CCGGAGCAAUAUUACGGAUA | -2.42 ± 0.2 | -1.18 ± 0.23 |

| Sequence | self-splicing fitness (ln) (30 °C) | self-splicing fitness (ln) (37 °C) |
| --- | --- | --- |
| CCGGAGCAAUAUUACGGCAC | – | -0.904 ± 0.44 |
| CCGGAGCAAUAUUACGGCAG | -3.21 ± 0.24 | -3.16 ± 0.33 |
| CCGGAGCAAUAUUACGGCAU | -2.81 ± 0.22 | -1.55 ± 0.19 |
| CCGGAGCAAUAUUACGGCUG | -1.14 ± 0.15 | -0.43 ± 0.18 |
| CCGGAGCAAUAUUACGGUAC | -2.73 ± 0.22 | -2.25 ± 0.4 |
| CCGGAGCAAUAUUACGGUCU | -2.42 ± 0.22 | -2.54 ± 0.38 |
| CCGGAGCAAUAUUACGGUGG | -3.8 ± 0.37 | -2.61 ± 0.36 |
| CCGGAGCAAUAUUACGUGAG | -1.33 ± 0.12 | -0.689 ± 0.1 |
| CCGGAGCAAUAUUACGUGGA | -3.59 ± 0.47 | -2.16 ± 0.25 |
| CCGUAGCAAUAUUACGAAGA | -3.8 ± 0.35 | -2.08 ± 0.24 |
| CCGUAGCAAUAUUACGACAC | -1.82 ± 0.22 | – |
| CCGUAGCAAUAUUACGACAG | -0.678 ± 0.11 | -0.234 ± 0.13 |
| CCGUAGCAAUAUUACGACCU | -0.833 ± 0.34 | – |
| CCGUAGCAAUAUUACGACGG | – | -0.894 ± 0.28 |
| CCGUAGCAAUAUUACGAGCG | -0.86 ± 0.12 | -0.719 ± 0.15 |
| CCGUAGCAAUAUUACGAGGA | -2.96 ± 0.24 | -1.24 ± 0.18 |
| CCGUAGCAAUAUUACGAUGG | -3.58 ± 0.2 | -3.38 ± 0.26 |
| CCGUAGCAAUAUUACGAUUA | -2.57 ± 0.2 | -1.86 ± 0.26 |
| CCGUAGCAAUAUUACGAUUU | -3.55 ± 0.17 | -2.08 ± 0.17 |
| CCGUAGCAAUAUUACGCAAC | -4.04 ± 0.26 | -2.13 ± 0.21 |
| CCGUAGCAAUAUUACGCACA | -3.79 ± 0.31 | -1.44 ± 0.36 |
| CCGUAGCAAUAUUACGCGCU | -3.4 ± 0.4 | -1.57 ± 0.3 |
| CCGUAGCAAUAUUACGCUGA | -2.87 ± 0.31 | -2.06 ± 0.28 |
| CCGUAGCAAUAUUACGCUUA | -3.52 ± 0.45 | -1.7 ± 0.35 |
| CCGUAGCAAUAUUACGGAGU | -2.68 ± 0.16 | -2.33 ± 0.22 |

| Sequence | self-splicing fitness (ln) (30 °C) | self-splicing fitness (ln) (37 °C) |
| --- | --- | --- |
| CCGUAGCAAUAUUACGGAUG | -3.56 ± 0.3 | -2.11 ± 0.23 |
| CCGUAGCAAUAUUACGGCUU | -3.06 ± 0.35 | -3.06 ± 0.43 |
| CCGUAGCAAUAUUACGGUAU | -4.05 ± 0.21 | -2.85 ± 0.2 |
| CCGUAGCAAUAUUACGGUGU | -3.66 ± 0.17 | -1.85 ± 0.11 |
| CCGUAGCAAUAUUACGUAGA | -3.28 ± 0.22 | -1.41 ± 0.13 |
| CCGUAGCAAUAUUACGUCCG | 0.211 ± 0.094 | 0.319 ± 0.11 |
| CCGUAGCAAUAUUACGUCGG | -3.57 ± 0.17 | -3.02 ± 0.23 |
| CCGUAGCAAUAUUACGUGCU | – | -1.98 ± 0.19 |
| CCGUAGCAAUAUUACGUGGA | -3.1 ± 0.32 | -2.84 ± 0.21 |
| CCGUAGCAAUAUUACGUGUA | -3.5 ± 0.2 | -3.25 ± 0.29 |
| CCUAAGCAAUAUUACGACAU | -3.909 ± 0.025 | -2.82 ± 0.038 |
| CCUAAGCAAUAUUACGAGGU | -4.68 ± 0.25 | -3.38 ± 0.18 |
| CCUAAGCAAUAUUACGAUCA | -3.57 ± 0.28 | -3 ± 0.25 |
| CCUAAGCAAUAUUACGAUCU | -3.39 ± 0.35 | -3.07 ± 0.28 |
| CCUAAGCAAUAUUACGCAAA | -3.38 ± 0.36 | -1.76 ± 0.3 |
| CCUAAGCAAUAUUACGCAGC | -3.07 ± 0.29 | -2.46 ± 0.24 |
| CCUAAGCAAUAUUACGCAGU | -3.23 ± 0.19 | -1.76 ± 0.19 |
| CCUAAGCAAUAUUACGCUCC | -4.01 ± 0.46 | -2.97 ± 0.29 |
| CCUAAGCAAUAUUACGGACA | -1.7 ± 0.31 | -2.24 ± 0.31 |
| CCUAAGCAAUAUUACGGCAU | -3.48 ± 0.22 | -1.98 ± 0.19 |
| CCUAAGCAAUAUUACGGCGC | -3.12 ± 0.29 | -3.22 ± 0.33 |
| CCUAAGCAAUAUUACGGGCA | -3.62 ± 0.25 | -2.85 ± 0.24 |
| CCUAAGCAAUAUUACGUAAG | -0.318 ± 0.064 | -0.35 ± 0.087 |
| CCUAAGCAAUAUUACGUGCU | -3 ± 0.24 | -2.55 ± 0.36 |
| CCUAAGCAAUAUUACGUUCG | -2.38 ± 0.091 | -2.02 ± 0.11 |

| Sequence | self-splicing fitness (ln) (30 °C) | self-splicing fitness (ln) (37 °C) |
| --- | --- | --- |
| CCUCAGCAAUAUUACGAAUA | -1.54 ± 0.2 | -2.78 ± 0.4 |
| CCUCAGCAAUAUUACGACAG | -1.06 ± 0.066 | -0.262 ± 0.079 |
| CCUCAGCAAUAUUACGACGG | -2.74 ± 0.18 | -1.64 ± 0.27 |
| CCUCAGCAAUAUUACGACUG | -3.09 ± 0.23 | -2.76 ± 0.21 |
| CCUCAGCAAUAUUACGAGAU | -3.32 ± 0.18 | -3.16 ± 0.24 |
| CCUCAGCAAUAUUACGAGUC | -3.88 ± 0.34 | -2.27 ± 0.26 |
| CCUCAGCAAUAUUACGAUAG | -0.572 ± 0.067 | -1.24 ± 0.1 |
| CCUCAGCAAUAUUACGCAUA | -2.47 ± 0.17 | -2.19 ± 0.17 |
| CCUCAGCAAUAUUACGCCAC | -3.18 ± 0.36 | -2.12 ± 0.41 |
| CCUCAGCAAUAUUACGCCUG | -2.38 ± 0.081 | -1.72 ± 0.11 |
| CCUCAGCAAUAUUACGCGCG | -2.78 ± 0.13 | -1.45 ± 0.13 |
| CCUCAGCAAUAUUACGCUGG | -2.55 ± 0.12 | -2.41 ± 0.17 |
| CCUCAGCAAUAUUACGGAGA | -2.8 ± 0.18 | -1.4 ± 0.15 |
| CCUCAGCAAUAUUACGGAUC | – | -1.41 ± 0.22 |
| CCUCAGCAAUAUUACGGGGC | -3.68 ± 0.14 | -2.98 ± 0.19 |
| CCUCAGCAAUAUUACGGGGU | -3.88 ± 0.15 | -3.49 ± 0.2 |
| CCUCAGCAAUAUUACGGUAG | -0.514 ± 0.05 | -0.195 ± 0.067 |
| CCUCAGCAAUAUUACGGUGC | -2.28 ± 0.15 | -2.77 ± 0.48 |
| CCUCAGCAAUAUUACGGUGG | -4.11 ± 0.16 | -2.41 ± 0.16 |
| CCUCAGCAAUAUUACGGUUA | -3.34 ± 0.21 | -3.26 ± 0.19 |
| CCUCAGCAAUAUUACGGUUG | -2.28 ± 0.085 | -0.828 ± 0.094 |
| CCUCAGCAAUAUUACGUAGA | -3.97 ± 0.28 | -2.8 ± 0.3 |
